In patent US20180155451A1 (published 2018):

T1: FcγRIIa H (FcγRIIa, type H allotype, His at position 131), extracellular domain with C-terminal His tag (human, UniProt P12318 34-217)
T1 construct: extracellular domain; Soluble receptor expressed in FreeStyle293 cells; analyte in Biacore; also called FcgRIIa H; 2aH; not shown: C-terminal His tag
T1 sequence (looked up): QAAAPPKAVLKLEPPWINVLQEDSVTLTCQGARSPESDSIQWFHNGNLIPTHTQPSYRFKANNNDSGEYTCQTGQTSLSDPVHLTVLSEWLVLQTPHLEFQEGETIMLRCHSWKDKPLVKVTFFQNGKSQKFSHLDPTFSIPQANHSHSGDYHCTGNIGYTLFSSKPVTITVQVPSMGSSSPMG

T2: FcγRIIb, extracellular domain with C-terminal His tag (human, UniProt P31994 43-217)
T2 construct: extracellular domain; Soluble receptor expressed in FreeStyle293 cells; analyte in Biacore; also called FcgRIIb; 2b; not shown: C-terminal His tag
T2 sequence (looked up): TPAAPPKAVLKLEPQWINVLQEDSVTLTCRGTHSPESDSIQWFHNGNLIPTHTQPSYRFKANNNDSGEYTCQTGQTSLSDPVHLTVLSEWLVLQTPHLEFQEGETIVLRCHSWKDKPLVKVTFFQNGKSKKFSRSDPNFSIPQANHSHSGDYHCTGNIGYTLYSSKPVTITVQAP


Tests used:
[1] = target: T1, FcγRIIa H (FcγRIIa, type H allotype, …); test: ratio of He/Con_2aH to He/Con_2b (FcγRIIa H over FcγRIIb), SPR
[2] = target: T1, FcγRIIa H (FcγRIIa, type H allotype, …); test: SPR (Biacore), captured antibody, FcγR as analyte
[3] = target: T2, FcγRIIb, extracellular domain with …; test: SPR (Biacore), captured antibody, FcγR as analyte

Binder	He_2aH/2b (IIaH/IIb) [1]	He/Con_2aH [2]	He/Con_2b [3]
GpH7-A5/GpH7-B3 variant D270_12R/GpL16-k0 (antibody, human IgG1, kappa, Heterodimerized IgG1; mutation only in the GpH7-B3 chain; also called He Ab) heavy 1: not shown heavy 2: not shown light: DIVMTQSPLSLPVTPGEPASISCQASESLVHSNRNTYLHWYLQKPGQSPQLLIYKVSNRFSGVPDRFSGSGSGTDFTLKISRVEAEDVGVYYCSQNTHVPPTFGQGTKVEIERTVAAPSVFIFPPSDEQLKSGTASVVCLLNNFYPREAKVQWKVDNALQSGNSQESVTEQDSKDSTYSLSSTLTLSKADYEKHKVYACEVTHQGLSSPVTKSFNRGEC	2.16	39.5 relative, GpH7-A5/GpH7-B3/GpL16-k0 = 100	18.3 relative, GpH7-A5/GpH7-B3/GpL16-k0 = 100
GpH7-A5/GpH7-B3 variant E269_04F/GpL16-k0 (antibody, human IgG1, kappa, Heterodimerized IgG1; mutation only in the GpH7-B3 chain; also called He Ab) heavy 1: not shown heavy 2: not shown light: DIVMTQSPLSLPVTPGEPASISCQASESLVHSNRNTYLHWYLQKPGQSPQLLIYKVSNRFSGVPDRFSGSGSGTDFTLKISRVEAEDVGVYYCSQNTHVPPTFGQGTKVEIERTVAAPSVFIFPPSDEQLKSGTASVVCLLNNFYPREAKVQWKVDNALQSGNSQESVTEQDSKDSTYSLSSTLTLSKADYEKHKVYACEVTHQGLSSPVTKSFNRGEC	1.52	68.5 relative, GpH7-A5/GpH7-B3/GpL16-k0 = 100	45 relative, GpH7-A5/GpH7-B3/GpL16-k0 = 100
GpH7-A5/GpH7-B3 variant D270_18N/GpL16-k0 (antibody, human IgG1, kappa, Heterodimerized IgG1; mutation only in the GpH7-B3 chain; also called He Ab) heavy 1: not shown heavy 2: not shown light: DIVMTQSPLSLPVTPGEPASISCQASESLVHSNRNTYLHWYLQKPGQSPQLLIYKVSNRFSGVPDRFSGSGSGTDFTLKISRVEAEDVGVYYCSQNTHVPPTFGQGTKVEIERTVAAPSVFIFPPSDEQLKSGTASVVCLLNNFYPREAKVQWKVDNALQSGNSQESVTEQDSKDSTYSLSSTLTLSKADYEKHKVYACEVTHQGLSSPVTKSFNRGEC	1.55	62.5 relative, GpH7-A5/GpH7-B3/GpL16-k0 = 100	40.3 relative, GpH7-A5/GpH7-B3/GpL16-k0 = 100
GpH7-A5/GpH7-B3 variant E269_13S/GpL16-k0 (antibody, human IgG1, kappa, Heterodimerized IgG1; mutation only in the GpH7-B3 chain; also called He Ab) heavy 1: not shown heavy 2: not shown light: DIVMTQSPLSLPVTPGEPASISCQASESLVHSNRNTYLHWYLQKPGQSPQLLIYKVSNRFSGVPDRFSGSGSGTDFTLKISRVEAEDVGVYYCSQNTHVPPTFGQGTKVEIERTVAAPSVFIFPPSDEQLKSGTASVVCLLNNFYPREAKVQWKVDNALQSGNSQESVTEQDSKDSTYSLSSTLTLSKADYEKHKVYACEVTHQGLSSPVTKSFNRGEC	1.46	70 relative, GpH7-A5/GpH7-B3/GpL16-k0 = 100	47.8 relative, GpH7-A5/GpH7-B3/GpL16-k0 = 100
GpH7-A5/GpH7-B3 variant D270_20W/GpL16-k0 (antibody, human IgG1, kappa, Heterodimerized IgG1; mutation only in the GpH7-B3 chain; also called He Ab) heavy 1: not shown heavy 2: not shown light: DIVMTQSPLSLPVTPGEPASISCQASESLVHSNRNTYLHWYLQKPGQSPQLLIYKVSNRFSGVPDRFSGSGSGTDFTLKISRVEAEDVGVYYCSQNTHVPPTFGQGTKVEIERTVAAPSVFIFPPSDEQLKSGTASVVCLLNNFYPREAKVQWKVDNALQSGNSQESVTEQDSKDSTYSLSSTLTLSKADYEKHKVYACEVTHQGLSSPVTKSFNRGEC	1.74	60.2 relative, GpH7-A5/GpH7-B3/GpL16-k0 = 100	34.7 relative, GpH7-A5/GpH7-B3/GpL16-k0 = 100
GpH7-A5/GpH7-B3 variant D270_14T/GpL16-k0 (antibody, human IgG1, kappa, Heterodimerized IgG1; mutation only in the GpH7-B3 chain; also called He Ab) heavy 1: not shown heavy 2: not shown light: DIVMTQSPLSLPVTPGEPASISCQASESLVHSNRNTYLHWYLQKPGQSPQLLIYKVSNRFSGVPDRFSGSGSGTDFTLKISRVEAEDVGVYYCSQNTHVPPTFGQGTKVEIERTVAAPSVFIFPPSDEQLKSGTASVVCLLNNFYPREAKVQWKVDNALQSGNSQESVTEQDSKDSTYSLSSTLTLSKADYEKHKVYACEVTHQGLSSPVTKSFNRGEC	1.3	75.3 relative, GpH7-A5/GpH7-B3/GpL16-k0 = 100	57.8 relative, GpH7-A5/GpH7-B3/GpL16-k0 = 100
GpH7-A5/GpH7-B3 variant E269_03V/GpL16-k0 (antibody, human IgG1, kappa, Heterodimerized IgG1; mutation only in the GpH7-B3 chain; also called He Ab) heavy 1: not shown heavy 2: not shown light: DIVMTQSPLSLPVTPGEPASISCQASESLVHSNRNTYLHWYLQKPGQSPQLLIYKVSNRFSGVPDRFSGSGSGTDFTLKISRVEAEDVGVYYCSQNTHVPPTFGQGTKVEIERTVAAPSVFIFPPSDEQLKSGTASVVCLLNNFYPREAKVQWKVDNALQSGNSQESVTEQDSKDSTYSLSSTLTLSKADYEKHKVYACEVTHQGLSSPVTKSFNRGEC	1.49	67.5 relative, GpH7-A5/GpH7-B3/GpL16-k0 = 100	45.1 relative, GpH7-A5/GpH7-B3/GpL16-k0 = 100
GpH7-A5/GpH7-B3 variant E269_12R/GpL16-k0 (antibody, human IgG1, kappa, Heterodimerized IgG1; mutation only in the GpH7-B3 chain; also called He Ab) heavy 1: not shown heavy 2: not shown light: DIVMTQSPLSLPVTPGEPASISCQASESLVHSNRNTYLHWYLQKPGQSPQLLIYKVSNRFSGVPDRFSGSGSGTDFTLKISRVEAEDVGVYYCSQNTHVPPTFGQGTKVEIERTVAAPSVFIFPPSDEQLKSGTASVVCLLNNFYPREAKVQWKVDNALQSGNSQESVTEQDSKDSTYSLSSTLTLSKADYEKHKVYACEVTHQGLSSPVTKSFNRGEC	1.86	46.8 relative, GpH7-A5/GpH7-B3/GpL16-k0 = 100	25.2 relative, GpH7-A5/GpH7-B3/GpL16-k0 = 100
GpH7-A5/GpH7-B3 variant E269_14T/GpL16-k0 (antibody, human IgG1, kappa, Heterodimerized IgG1; mutation only in the GpH7-B3 chain; also called He Ab) heavy 1: not shown heavy 2: not shown light: DIVMTQSPLSLPVTPGEPASISCQASESLVHSNRNTYLHWYLQKPGQSPQLLIYKVSNRFSGVPDRFSGSGSGTDFTLKISRVEAEDVGVYYCSQNTHVPPTFGQGTKVEIERTVAAPSVFIFPPSDEQLKSGTASVVCLLNNFYPREAKVQWKVDNALQSGNSQESVTEQDSKDSTYSLSSTLTLSKADYEKHKVYACEVTHQGLSSPVTKSFNRGEC	1.37	69.6 relative, GpH7-A5/GpH7-B3/GpL16-k0 = 100	50.6 relative, GpH7-A5/GpH7-B3/GpL16-k0 = 100
